Experimental data: patent US20250092146A1 (ABILITA BIO, published 2025)
Where a chain is given by its changes, count along the chain named.

T1: human CCR7 (hCCR7) (human, UniProt P32248 25-378)
T1 construct: HEK293 cells stably expressing hCCR7
T1 sequence: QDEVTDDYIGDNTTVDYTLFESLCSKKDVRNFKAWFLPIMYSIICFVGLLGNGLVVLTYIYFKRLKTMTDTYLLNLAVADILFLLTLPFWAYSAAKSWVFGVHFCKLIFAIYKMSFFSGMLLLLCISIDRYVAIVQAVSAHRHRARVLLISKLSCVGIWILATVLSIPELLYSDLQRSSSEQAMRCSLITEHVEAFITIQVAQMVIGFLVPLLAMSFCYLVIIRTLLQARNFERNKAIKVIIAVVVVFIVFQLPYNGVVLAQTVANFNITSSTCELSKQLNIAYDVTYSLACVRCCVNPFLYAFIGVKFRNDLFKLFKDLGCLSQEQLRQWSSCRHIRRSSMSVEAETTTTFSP

B1: VHH-1-mFc (Fc fusion)
chain: QVQLQESGGGLVQAGGSLRLSCVASGSTSSIRRIGWYRQAPGKQRELVARFSSGGGTNYADFVKGRFTISGDNAKNTMYLQMNSLKPEDTAVYYCSARRLLGTSRVDYWGQGTQVTVSSEPRGPTIKPCPPCKCPAPNLLGGPSVFIFPPKIKDVLMISLSPIVTCVVVDVSEDDPDVQISWFVNNVEVHTAQTQTHREDYNSTLRVVSALPIQHQDWMSGKEFKCKVNNKDLPAPIERTISKPKGSVRAPQVYVLPPPEEEMTKKQVTLTCMVTDFMPEDIYVEWTNNGKTELNYKNTEPVLDSDGSYFMYSKLRVEKKNWVERNSYSCSVVHEGLHNHHTTKSFSRTPGK
B2: BMS-4A19 (antibody, human IgG1, kappa)
heavy: not shown
light: DIVMTQTPLSLSVTPGQPASISCRSSQSLFHSSGNTYLHWYLQKPGQPPQLLIYKVSNRFSGVPDRFSGSGSGTDFTLKISRVEAEDVGVYYCSQSTHVPFTFGQGTKLEIKRTVAAPSVFIFPPSDEQLKSGTASVVCLLNNFYPREAKVQWKVDNALQSGNSQESVTEQDSKDSTYSLSSTLTLSKADYEKHKVYACEVTHQGLSSPVTKSFNRGEC
notes: Comparator from WO2021194942A1, made in HEK293 cells
B3: VHH-1 (VHH, not shown: small tags and cut ends)
VHH: QVQLQESGGGLVQAGGSLRLSCVASGSTSSIRRIGWYRQAPGKQRELVARFSSGGGTNYADFVKGRFTISGDNAKNTMYLQMNSLKPEDTAVYYCSARRLLGTSRVDYWGQGTQVTVSS
notes: Monovalent VHH purified from E. coli periplasm (PelB signal peptide)
B4: VHH-3 (VHH, not shown: small tags and cut ends)
VHH: B3 VHH with S96G
notes: as for B3
B5: VHH-1.3-7-mFc (Fc fusion)
chain: EVQLVESGGGLVQPGGSLRLSCAVSGSTSSIRRIGWYRQAPGKGRELVAHFSSGGGTNYADSVKGRFTISGDKSKNTMYLQMNSLRAEDTAVYYCSARRLLGTSRVDYWGQGTTVTVSSEPRGPTIKPCPPCKCPAPNLLGGPSVFIFPPKIKDVLMISLSPIVTCVVVDVSEDDPDVQISWFVNNVEVHTAQTQTHREDYNSTLRVVSALPIQHQDWMSGKEFKCKVNNKDLPAPIERTISKPKGSVRAPQVYVLPPPEEEMTKKQVTLTCMVTDFMPEDIYVEWTNNGKTELNYKNTEPVLDSDGSYFMYSKLRVEKKNWVERNSYSCSVVHEGLHNHHTTKSFSRTPGK
B6: VHH-1.3-19-mFc (Fc fusion)
chain: B5 chain with R33G, T114Q
B7: VHH-1.3-20-mFc (Fc fusion)
chain: B5 chain with R33G, H50R, S52I, K73N, R99I, T114Q
B8: VHH-1.3-21-mFc (Fc fusion)
chain: B5 chain with R33G, H50R, S52I, G71A, K73N, T114Q
B9: CCL1 (ligand, UniProt P22362 24-96, looked up)
chain: KSMQVPFSRCCFSFAEQEIPLRAILCYRNTSSICSNEGLIFKLKRGKEACALDTVGWVQRHRKMLRHCPSKRK
notes: also called hCCR8 agonist CCL1

Legend:
[1] = target: T2, human CCR8 (hCCR8) (human, UniProt P51685 1-355); experiment: cell-based or functional assay
T2 sequence (P51685 whole entry, the tested form may be a part): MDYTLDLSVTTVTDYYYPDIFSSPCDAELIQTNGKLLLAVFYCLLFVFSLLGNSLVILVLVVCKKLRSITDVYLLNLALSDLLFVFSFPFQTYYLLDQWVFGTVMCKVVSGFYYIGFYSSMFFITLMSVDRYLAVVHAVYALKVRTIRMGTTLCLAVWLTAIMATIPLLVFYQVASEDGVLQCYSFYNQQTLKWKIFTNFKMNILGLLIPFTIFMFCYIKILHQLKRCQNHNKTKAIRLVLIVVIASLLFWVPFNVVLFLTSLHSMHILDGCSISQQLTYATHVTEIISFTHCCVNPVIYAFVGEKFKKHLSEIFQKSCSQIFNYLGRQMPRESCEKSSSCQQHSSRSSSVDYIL

[2] = target: T3, Chimera A (hCCR8 with its N-terminus replaced by amino acids 1-22 of hCCR1) (human (hCCR8/hCCR1 chimera), UniProt P51685 18-355); experiment: flow cytometry (MFI), HEK293T cells expressing Chimera A (hCCR8 with hCCR1 N-terminus)
T3 construct: Transiently transfected HEK293T cells
T3 sequence (P51685 other isoform, or with tags, fused parts or gaps mutant): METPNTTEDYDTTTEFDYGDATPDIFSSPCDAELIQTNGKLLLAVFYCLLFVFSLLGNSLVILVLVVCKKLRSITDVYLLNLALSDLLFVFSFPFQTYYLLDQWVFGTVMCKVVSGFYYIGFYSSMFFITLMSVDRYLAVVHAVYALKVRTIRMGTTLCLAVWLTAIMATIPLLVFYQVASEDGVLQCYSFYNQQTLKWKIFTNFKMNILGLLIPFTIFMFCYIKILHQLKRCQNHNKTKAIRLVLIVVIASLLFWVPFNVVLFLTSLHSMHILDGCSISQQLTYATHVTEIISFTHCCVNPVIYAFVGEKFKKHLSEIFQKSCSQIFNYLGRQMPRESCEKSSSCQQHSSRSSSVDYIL
Description: Determination of binding epitope location on hCCR8 was done for representative VHH-Fc antibodies by flow cytometry analysis using HEK293T cells expressing hCCR8 or two receptor chimeras comprised of combined sequence elements taken from hCCR8 (SEQ ID NO: 37) and hCCR1 (SEQ ID NO: 39). In the first, Chimera A based on hCCR8, the N-terminal region of the receptor (SEQ ID NO: 38) was replaced with a sequence encoding the N-terminal region of hCCR1 (SEQ ID NO: 40). In Chimera B based on hCCR1, the N-terminal region of the receptor was replaced by the sequence encoding the hCCR8 N-terminus (SEQ ID NO: 38).

[3] = target: T1, human CCR7 (hCCR7); experiment: flow cytometry, HEK293 cells stably expressing hCCR7, anti-VHH detection
Description: Recombinant cells expressing hCCR8 were resuspended to a final concentration of 1.0×10⁶ cells/ml in FACS buffer. […] Dilutions of purified VHHs were incubated with cells for 60 min. Individual samples were distributed into 96-well v-bottom plates and incubated for one hour at 4° C. […] Binding was determined in parallel on HEK293 cells stably expressing the closely related receptor hCCR7 (SEQ ID NO: 41), as control for binding specificity.

[4] = target: T2, human CCR8 (hCCR8); experiment: competition with 10 nM VHH-1-Fc, flow cytometry on HEK293-hCCR8 cells
Description: Binding studies were conducted on hCCR8 expressing cells for 60 minutes at 4° C., followed by two washes and then 30 minutes incubation at 4° C. with the Zenon R-Phycoerythrin Anti-human IgG secondary antibody (ThermoFisher Scientific, #Z-25455). Binding to cells was assessed by flow cytometry.

Binder | EC50 (nM), ADCC reporter assay, mouse FcγRIV effector cells, HuT-78 target cells [1] | Fold Induction, ADCC reporter assay, mouse FcγRIV effector cells, HuT-78 target cells [1] | further results
B1 | 0.015 nM | 12 fold | 
B2 |  |  | binding result [2]: no binding
B3 |  |  | binding result [3]: no binding
B4 |  |  | binding result [3]: no binding
B5 | 0.007 nM | 12 fold | 
B6 | 0.024 nM | 11.3 fold | 
B7 | 0.345 nM | 9.74 fold | 
B8 | 0.042 nM | 11.4 fold | 
B9 |  |  | binding result [4]: binds
